Source: the nanobody polyreactivity screen of Harvey et al. (2022)

Experiment: yeast display, Sf9 membrane polyspecificity reagent, FACS + sequencing; frameworks hold sequencing errors
Outline: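 Using colony PCR, genes from sorted yeast display clones were amplified, then sequenced on MiSeq at 2 × 250 and filtered by CDR length. The clones had been stained with 10% biotinylated, detergent-solubilized Sf9 membrane reagent for 1 hour at 4 °C and sorted by FACS into low and high (top ~1%) gates on anti-HA and streptavidin fluorescence. Polyreactivity labels come from the gate of origin.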

| Sequence | polyreactivity (PSR sort gate) |
| --- | --- |
| QVQLVESGGGLVQAGGSLRLSCAASGSIFPYYAMGWYRPAPGKERELVASINQSDGTTYYADSVKGRFTISRDNAKNTVYLQMNRLKPEDTAVSYCAADTTLQDFIRYRPMGSYDSWGQGTQVTVSS | low polyreactivity |
| QLQLVESGGGLVQAGGSLRVSCAASGSIFLRYAMGWYRQAAGKERELVAAITSSGGSTYYADSVKGRFTISRDNAKNTVYLQMNSLKPEDTAVYYCNRYSYLFPYYWKYDYWGQGTQVTVSS | high polyreactivity |
| QVQLVESGGGLVQAGGSLRLSCAASGRTFVHNAMGWYRQAPGKERELVAVITSGARTTYADSVKGRFTISRDNAKNTVYLQMNSLKPEDTAVYYCAAGTFSVIFSYKYRHYYYWGQGTQVTVSS | low polyreactivity |
| QVQLVESGGGLVQAGGSLRLSFAASGRTFHGYAMGWYRQAPGKERELVARINWSDGRTYYADSVKGRFTISRDNAKNTVYLQMNSLKPEDTAVYYCAADKTVSYAPAWYYYWGQGTHVTVSS | low polyreactivity |
| QVQLVDSGGGLVQAGGSLRLSCDASGLIFRYYTMGWYRQAPGKERELVATITKSGSSTYYADSVKGRFTISRDNAKNTVYLQMNSLKPEDTAVYYCAARAYPSSPRGVYAYYYWGQGTQVTVSS | high polyreactivity |
| QVQLVESGGGLVQAGGSLRLSCAACGFIFYKNAMGWYRQAPGKERELFAAISGGGGSTSYADSVKGRFTISRDNAKNTVYLQMNSLKPEDTAVYYCATYSFRRTGWRYDYWGQGTQVTVSS | high polyreactivity |
| QVQLVESGGGLVQAGGSLRLSCAASGRISTYTMGWYRQAPGKERELVATISTDASTNYADSVKGRFTISRDNAKNTVYLQINSLKPEDTAVYYCAAVIVNQYYDYWGQGTQVTVSS | low polyreactivity |
| QVQLVESGGGLVQAGGSLRLSCAASGIIFEYYAMGWYRQAPGKERELVAAITWNGGRTYYADSVKGRFTISRDNAKNTVYLQMNSLKPEDTAVYYCAARKPRSGGPFDYWGQGTQVTVSS | high polyreactivity |
| QVQLVESCGGLVQAGGSLRLSCAASGRIFQTYAMGWYRQAPGKERELVASISWSGGSTYYADSVKGRFTILRDNAKNTVYLQMNSLKPEDTAVYYCAAVYYSTDYYFWYDYWGQGTQVTVSS | low polyreactivity |
| QVQLVESGGGLVQAGGSLRLSCAASGITFTFNAMGWYRQAPGKERELVAAITWSGGSTFYADSVKGRFTITRDNAKNTVYLQMNSLKPEDTAVYYCARDTELYVRWLDYWGQGTQVTVSS | low polyreactivity |
| QVQHVESGGGLVQAGGSLRLTCAATGSTFRDNAMRWYRQAPGKERELVAAIRIGGDGTYYADSVKGRFTISRDNAKNTVYLQMNSLKPEDTAVYYCAVDTEKGWRMYYWGQGTQVTVSS | low polyreactivity |
| QVQLVESGGGLVQAGGSLRLSFAASGITFVRYAMGWYRQPPGKERALVAAISRSGTSTYSADSVKGRFTISRDNAKNTVYLQMNSLKPEDTAVYYCYVRRYDYWGQGTQVTVSS | high polyreactivity |
| QVQLVESGGGLVQAGGSLRLSCAASGSIFTYNTMGWYRQAPGKERELVATISWSGGRTYYADSVKGRFTISRDNAKNTVYLQMNSLKPEDTAVYYCAAGYYYGYPPRDYWGQGSQVTVSS | high polyreactivity |
| QVQLVESGGGLVQAGGSLRLSCAASGRIVVPYAMGWYRQAPGKERELVAAITSGGSTYYADSVKGRFTISRDNAKNTVYLQMNSLKPEDTAVYYCAATSRRSSETYYFWGQGTQVTVSS | high polyreactivity |
| QVQLVESGVGLVQAAGSLRLSCAASGRIFYHYTMGWYRQAPGKERELVAAITSGGSTYYADSVKGRFTISRDNAKNTVYLQMNSLKPEDTAVYYCAAEGYTYYPVYSTRMYYWGQGTQVTVSS | low polyreactivity |
| QLQLQESGGGLVQAGGSLRLTCAASGYIFPTAIMRWYRQAPGTERKLVAASNPGSNTYYADSVKGRFTFSLDNAKNTVYLQMNSLTPEDAAVYSCAVSIWLDGTLDFWGQGTQVTVSS | low polyreactivity |
| QVQLVESGGCLVQSGGSLRLSCAATGSTFGRNAMGWSRQAPGKESELVAAISRGGGITYYADSVKGRFTISRDNAKNTVYFQMNSLKPEDTAVYYCNAYLSKYFRYDYWGQGTQVTVSS | high polyreactivity |
| QVQLVESGGGLVQAGGSLSLSCAASGIIFYYYAMGWYRQAPGKERELVAAISTSGGRTYYADSVKGRFTISRDNAKNTVYLQMNSMKPEDTAVYYCAADYLKGEEDYWGQGTQVTVSS | low polyreactivity |
| QVQLVESGGGLVQAGGSLRLSCAASGMTFHRYAMGWYRQTPGKERELVAAINYSGGRTYYADSVKGRFTISRDNAKNTVYLQMNSLKPEDTAVYYCAAPRASGYYWGQGTQVTVSS | high polyreactivity |
| QVQLVESRGGLVQAGGSLRLSCAASGSTRGSNAMGRYRQAPGKEMELVAAITWSGGTTYYADSVKGRFTISRDNAKNTVYLQMHSLKPEDTSVYYCATGQSVIYRYEYWGQGTQVTVSS | low polyreactivity |
| QVQLVESGGGLVQAGGSLRLSCAASGIIFDYNAMGWYRQAPGKERELVAAISGRSGRTYYADSVKGRFTISRDNAKNTVYLQMNSLKPEDTAVYYCAARWYAGGNYWGQGTQVTVSS | high polyreactivity |
| QVQLEDSGGGLVQAGGSLRLSCAASGRTFPYKAMGWYRQAPGKERELVAAITSSGGSTYYADSVKGRFTISRDNAKNTVYLQMNSLKPEDTAVYYCAKGYYSPNYYYWGQGTQVTVSS | high polyreactivity |

| Sequence | polyreactivity (PSR sort gate) |
| --- | --- |
| QVQLVESGGGLVQAGGSLRLSCAASGSIFDSYAMGWYRQAPGKERELVAGIDSTGDTSYADSVKGRFTISRDNAKNTVYLQMNSLKPEDTAVYYCAKEYPGDSVQASDEPWGMGYWGQGTQVTVSS | low polyreactivity |
| QVQLVESGGGLVQAGGSLRLSCAASGRIFHGYAMGWYRQAPGKDRELVAVIRSGVNTNYADSVKGRFTISRDNAKNTVYLQMNSLKPADTAVYYCAVDYTPEDWGDDYWGQGTHVTVSS | low polyreactivity |
| QVQLVESGGGLVQAGGSLRLSCAASGLTYYTYAMGWYRQAPGKERELVAAITASGGRTYYADSVKGRFTISRDNAKNTVYLQMNSLKPEDTAVYYCAADIRGDTYDYWGQGTQVNVSS | high polyreactivity |
| QVQLVESGGGLVQAGGSLRLSCAASGSTFGSNAMGWYRQAPGKERELVAAITGGDVSTYYADSVKGRFTISRDNAKNTVYLQMNSLKPEDTAVYYCNAEYARPAMDYWGQGTQVTVSS | low polyreactivity |
| QVQLVESGGGLVQAGGSLRLSCAASGNTFQSYAMGRYRQAPGKEREFVAAIRQSGGSTYYADSVKGRFTISRDTAKYTVYLQMNSLKPEATAVYYCAAYFTPRKYKPYDYWGLGTQVTVSS | high polyreactivity |
| QVQLVESGGGLVQAGGSLRLSCAASGLIFWYYAMGWYRQAPGKERELVAAINKIGGSTYYADSVKGRFTISRDNAKNTVYLQMNSLKPEDTAVYYCAADAPYYPVRRYYYWGQGTQVTVSS | low polyreactivity |
| QVQLVESGGGLVQAGGSLRLSCAASGIIFGSYAMGWYRQAPGKERELVAGISKIGGRTYYADSVKGRFTISRDNAKNTVYLQMNSLKPEDTAVYYCNKVRTRERTDYDYWGQGTQVTVSS | low polyreactivity |
| QVQLVESGGGLVQAGGSLRLSCAASGNTFTFYAMGWYRQAPGTERELVASITGRGGSTYYADSVKGRFTISRDNAKNTVYLQMNSLKPEDTAVYYCNADYNSFRYRPPTTRDYWGQGTQVTVSS | low polyreactivity |
| QVQLVESGGGLVQAGRSLRLSCAASGSTFHPYAMGWYRQAPGKERELVAAINSGDNTYYADSVKGRFTISRDNAKNTVYLQMNSLKPEDTAVYYCAVRYWDESHTEYDYWGQGTQVTVSS | low polyreactivity |
| QVQLVESGGGLVQAGGSLRLSCAASGRTFRHNAMGWYRQAPGKERELVAAISSSGTNTHYADSVKGRFTISRDNAKNTVYLQMNSLKPEDTAVYYCATVVRSAAYAFDYWGQGTQVTVSS | high polyreactivity |
| QVQLVESVGGLVQAGGSLRLSCAASGFTFRRYAMGWYRQAPGKERELVAAISYSGGITYYADSVKGRFTISRDNAKNTVYLQMNSLKPEDTAVYYCAADYFAPYKTYEYWGQGTQVTVSS | high polyreactivity |
| QVQLVESGGGLVQEGGSLRLSCAASGRIFYSNAMGWYRQAPGKERENVAAISWSGGGTYYADSVKGRFTISRDNAKNTVYLQMNSLKPEDTAVYYCAAVFGYSWAFEYDYWGQGTQVTVSS | low polyreactivity |
| QVQLVESGGGLVQAGGSLRLSCAASGSIYYRNAMGSYRQAPGKERELVAAISSTGSTYYADSVKGRFTISRDNAKNTVYLQMNSMKPEDTAVYYCAARQGYRSYRRYDSWGQGTQVTVSS | high polyreactivity |
| QVQLVESGGGLVQAGGSLRLSCAASGSTFAKNAMGWYRQAPGKERELVAAISSGGSTYYADSVKGRFTISRDNAKNTVYLQMNSLKPEDTAVYYCAASWKQGYRTYGYWGQGTQVTVSS | high polyreactivity |
| QVQLVESGGGLVQAGGSLRLSCAASGNTFGVYAMGWYRQAPGKERELVAAIRYRGGSTYYADSVKGRFTISRDKAKNTVYLQMTSLKPEETAVYYCAAVYYVQYVGRYYYWGQGTQVTVSS | high polyreactivity |
| QVQLVESGGGLVQAGGSLRLSCAASGSTFGVNAKGWYREAPGKERELVAGITSSGGSTYYADSVKGRFTTSRDNAKNTVYLQMNSLKPEDTAVYYCAARWIPASYGYGYWGQGTQVTVSS | low polyreactivity |
| QVQLVESGGGLVQAGGSLRLSCAASGITFNWYAMGWYRQAPGKERELVAAISGSGGRTYYADSVKGRFTISRDYPKNTVYLQMTSLKPEDTAVYYCNKVPYYAGQNYVYWGQGTQVTVSS | high polyreactivity |
| QVQLVESGGGLVQAGGSLRLSCAASGFTFEKYVMGWYRQAPGKEREFVAAITRSGGRTYYADSVKGRFTISRDNAKNTVYLQMNSLKPEDSAVYYCAAAFSRSDTGGGSWGQGTEVTVSS | high polyreactivity |
| QVQLVESGGGLVQAGGSLRLSCAASGSIFNRNAMGWYRQAPGKERELVAVISWTGDGTYYADSVKGRFTISRDNAKNTVYLQMNSLKPEDTAVYYCAARWYVQFYHRPVSKRYYWGQGTQVTVSS | high polyreactivity |
| QVQLVESGGGLVQAGGSLSLSCAASGFTFGTNAMGWYRQAPGKERELVAAISSRGGSTYYADSVKGRFTISRDNAKNTVYLEMNSLKPEDTAVYYCARRVAGRQHEYGYWGLGTQVTVSS | high polyreactivity |
| QVQLVESGGGLVQAGGSLRLSCAASGRTLYGYAMGWYRQAPGKERELVAAISKRGTRTYHADSVKGRFTISRDNAKNTVYLQMNSLKPEDTAVYFCGARYPPDEATMEYWGQGTQVTVSS | high polyreactivity |
